According to the supplement of paper PMC10567573:

B1: TCAP (parent)
chain: YQRVLPLPIFTPAKMGATKEERED

Variants of: B1
Assay: protein stability index of a GFP-peptide fusion (GPS, HEK-293T) (PSI 1-6); higher = more stable
Conditions: c terminus: a fixed tail appended
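Further: lentivirally expressed fusions sorted by FACS into six bins by GFP to DsRed ratio, PSI derived from sequencing read proportions per bin multiplied by bin number.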

Protein stability index: each site, then its substitutions
V4: A 1.71; C 2; D 1.52; E 1.93; F 2.27; G 2.82; H 1.37; I 2.07; K 1.8; L 2.18; M 1.53; N 1.83; P 2.67; Q 1.9; R 1.7; S 1.72; T 1.88; W 2.55; Y 2.26
L5: A 2.05; C 1.86; D 3.06; E 2.42; F 2.52; G 2.89; H 2.08; I 1.87; K 2.13; M 1.9; N 1.8; P 2.33; Q 2.03; R 2.7; S 1.97; T 1.98; V 1.96; W 2.81; Y 2.37
P6: A 2.09; C 1.72; D 2.62; E 2.22; F 2.25; G 1.9; H 2.11; I 2.19; K 1.89; L 1.73; M 1.65; N 1.35; Q 1.91; R 1.66; S 1.82; T 2.05; V 2.17; W 1.56; Y 2.35
L7: A 1.75; C 1.42; D 2.1; E 2.61; F 1.76; G 2.46; H 4.72; I 2.19; K 3.33; M 2.43; N 1.54; P 2.59; Q 2.56; R 3.08; S 2.31; T 1.73; V 2.4; W 2.86; Y 2.71
P8: A 1.96; C 2.62; D 1.57; E 2.46; F 1.45; G 1.37; H 2.15; I 2.15
